# Source: the DeepSol protein solubility set
# Experiment: soluble on expression in E. coli; label from the status in PepcDB or PDB records
row,Sequence,soluble on expression in E. coli
1,TPLSLTLDHWSEIRSRAHNLSVEIKKGPWRTFCASEWPTFDVGWPPEGTFDLTVIFEVKAIVFQDGPGSHPDQQPYITVWQDLVQNSPPWIK,soluble
2,MKTLLYQKVYDQLKLSIQEGKIPVGSKMPTENELMAQFDVSSITLKKALELLKKDGYISRRPRVGTFVINDSPNSEQIETRKFDKPLFGCIMTNFDDTFGTILLSGMLEHSDSKAHIIVKKSLGDTEREEEILQEFIEMNVAGILILPASSKFVSPTLLELASQKFPLVVIDRTLEGLPISSISSDNTEAGRIITEKLFELGHKHIGMITSTSPVSTLDSRVNGFIRGHASFHTAFHSDYVFREIESVMPNSTVSIQTDIDKIARFLETHPEITALVATEYNIALLIKQACNKLGKSIPTNLSVVCFDHPDNFFDTSAFQFTHIKQAQYEIGVKAVDMLLNQVLKPDTINKETLPPLLVEGDSVEPLKSTSK,not soluble
3,MGSDKIHHHHHHMRYAIYFSPAKDHPLTEAASRWLGRNAFSGTLHDDHDDYADLTEEPRRYGFHATLKAPFELAEKYSEAELLAAVEDFAANQSAFEIPRVVVGALGPFFALVPDRVYQPLQDFAAEVVDHFDRFRAPLSETDIARRRPQMLTESQRQNLSLWGYPHVMDDFRFHMTLTGRIDEEEQPAMQEILSTRFAEFVDQPLAISGLALFIEETRGAPFTVHRWHPLGQQPKKDANP,not soluble
4,MSCFVTVGSTLFEDLINQVLCEASLENLKKIGVKKIRLQIGKGNFNQDVIDRVFGETSGDEGSVKCDGLDIDYYRYKPSLSEDMAEALIVIGHGGAGTCLEVLALHLPFITVTNDKLMDNHQAELAVQLSDEGYLLQCTPSTLPETILKENLFSLRQFAAPSKKFVAEHIKQLVGIKNH,not soluble
5,MVELLAPARDLSGLITAFNNGADSVYCGLKEMSMRATAKNFERNELIEGINFAHDADKRVYLCTNTVVYEDDILNLNEILEFAKSAEVDAIIVNDIGAMVTAKELGLEVHVSVQNNITNSKTAEFFSKFAKRVVLSRELTLNQIKRIKENLKVNKVDLELEGFIHGALCTAMSGRCYLSSYLFNRNANCGDCLQPCRRSWKLVNEHADGTHELISEGKYLLSPKDLCMIEHIPEMIDVFDCFKIEGRAKNVDYVMRATKTYREAIDSVVDGTYEEKLPIFKKELDKIYNREYDTGFYFRDLTCNHDLQYEFEGNVSPYKKIEVGKVVNYFKKVDVAEITLIDDLKVGDSVLIIGPTTGCIEEKIESMQVEGENITTAKKGQNVGIKLENLVRENDKVYILKED,not soluble
6,MWKISKENCEDLGFAIVCMFYDAINLSEFKLWLDIVVRDIPIDTIPLYIFDLIDFDKSIGEIYDVIGVVNYGYISNDQKNALTGIAFLRGIDVYDPPISKEKALKALEKYPEIYQRFQHFFPFVELPLF,not soluble
7,MLQQVREQVAARLRLDAGRPWLMVHAGSGGSANNLSIEQYARLIIKLNQACPELQCILTAGPGEERIAEQLAAELLAHGGNGWIYRSDEGLPKFCQVMANAALFVAGSTGPLHIAAALDVPTIGFFPAHRSATPLRWRPLNSEGRHLAFSPPEDSDHPEDMSQLDPKTMAAAIARWAPPFWRTEHLEHHHHHH,not soluble
8,MKIEHLQHPTTHQLDQLMTIWLSGNLTAHDFVSADYWRQQAPLVREALQSAELIVGLTDGPEAYILGFIGLQNDYIAGIFICNDAQHQGLGTALLATAQADYHQLQLNVYVANRPAIAFYHYHGFRVIDQASDQATQQSEYTMQWQR,not soluble
9,AYMYRSAFSVGLETRVTVPNVPIRFTKIFYNQQNHYDGSTGKFYCNIPGLYYFSYHITVYMKDVKVSLFKKDKAVLFTYDQYQEKNVDQASGSVLLHLEVGDQVWLQVYGDGDHNGLYADNVNDSTFTGFLLYHDTN,soluble
10,MSLDCSIKMLKDVPVKMRDGITIYTDIYLPITEEKVPTLIAWSPYGKSAGTAPRYKNLFNMLGMGNAWNSGLTKFEAPDPAYWCAHGYAVCNPDMRGIAHSEGNTTMIGSQEAEDGYDLIEWLAKQSWSNGKTALTGTSYLAFSQWYIAAEQPPHLTCINPTEGLADGYRDLAFIGGIPDPNFIERLQINHVSAKNSQREDLTKEMEAYPLADSAIWKDKVADPSKITIPAFVIASYSNTLHTMGTFRSWRSLGSKEKWLRIHDRQEWPYYYDENNVEELRRFFDYYLLGKENNWTDTPTVRYALIDFQGGNQTDLPSEVFPPTNSENKRYYMNGLLRTLQETPTSDDFKVSYTTENLPGRASFQMTFDKETHFVGYPKAKLFMEVDGYDDLDVFVWLQKLDKFGNVLSEFVVPNHGAALQDFTQEGASALRYKGAWGRLRASMRQLDSQVSTDEIPAYSFDKVEKLSSGEIVELDIILSPIGLTYKAGETLRVVVSSKDELGSVMPGTPGCTPNNKGMHILHTSKEHPSYIQLPIINKEGHHHHHH,soluble
11,GPGSMVALIDTSCYSADCTLSALVPQHAMKPYRLLVTMELIASLGLKRFCRTVVPPPIGIKELLTYHAEDYILNLGLHSNRSWLWNTEVSKVTFSGDCPPVEGIVEYSLSTVSGSLMAAVLLNSGAVDTAIHWGGGMHHAKCGECSGFCYVNDIVIAIIELLKCHDRVLYVDLDMHHGDGVDEAFCRSRRVFTLSLHKFGESFFPGTGHPRDVGIGNGRHYTMNLAMWDGVDDFYYTTVFERALRSIVKRFNPNVVVLQCGADSLAGDRLGHFNLSSWGHGKCVEEVKKLGLPMLVVGGGGYTLRNVAKLWAYETSILCGKRLPLNTVIPLHRMPLSGWLFEESPQLLVSQDEENKPLPGVNVQRSFRVIIEQIDKHCPNIMTV,not soluble
12,MAFDAARYVHRYYASLAPAPGNEYPRLRAWEYLWEYVWDPSRSWDDLTAPEQLDTTALHLGFYLANWGMFRGSSGLLQNSNLDLMKALARQLFSGAGPELFELSLVDFAGNGARLAHNRKLLETVLGSMDALSSRVSWTDTLKSKILLGVWGEFPALDRHYVAACRALYPRRGLTSVNGGTLTALHRLIGEERLSFPRLETARKGLLYPTGRLADMAFFQYGLENALEHHHHHH,soluble
13,MGSDKIHHHHHHMKMSEKKEARVVINDLLAEQYANAFKAKEEGRPVGWSTSVFPQELAEVFDLNVLYPENQAAGVAAKKGSLELCEIAESKGYSIDLCAYARTNFGLLENGGCEALDMPAPDFLLCCNNICNQVIKWYENISRELDIPLIMIDTTFNNEDEVTQSRIDYIKAQFEEAIKQLEIISGKKFDPKKFEEVMKISAENGRLWKYSMSLPADSSPSPMNGFDLFTYMAVIVCARGKKETTEAFKLLIEELEDNMKTGKSSFRGEEKYRIMMEGIPCWPYIGYKMKTLAKFGVNMTGSVYPHAWALQYEVNDLDGMAVAYSTMFNNVNLDRMTKYRVDSLVEGKCDGAFYHMNRSCKLMSLIQYEMQRRAAEETGLPYAGFDGDQADPRAFTNAQFETRIQGLVEVMEERKKLNRGEI,not soluble
14,MSLKPESPNQDDFIIITMENLALYAIFDGHGPYGHDVSNYVQKELPYMIIKNENFLKNPKEVFTKAFLNIHENIERTTNAYLDSFTNKNSDSTMSGTTATIIVHLFKEKKLYVAYVGDSRAVLGKRKNGSKQLSAVELTKDHKPNCAAEKKRILSSGGQVMKLEGDIPYRVFIKNKFYPGLAMSRAIGDTIGHQIGIIAEPDFIEVNINEDEDILVLICSDGVWEFISSEEAVNLIYEFGYNNVQDAVENLARESWDRWLNEEENIVDDITIQAIYLSEKSKYLKEGHHHHHH,not soluble
15,MLDMNPQETYTAPEEVNTPSRPIDENALLQRHQVMVKRVVNQLRVHATSHCSIEDMQQIGLIALVEAGRRYGDIDDTHFPAFAVCRVRGAILDELRRLDWRSRKTRQQAHELNDVTRDLTRSLGRMPTDSEIIKALGTDEQDYYNRQNAALAGEMQSLDQLMENSTDSHFGGQYDGMEHEHIRRSLDSALGRLSKRDQLLLTLFYQHELNLHEIALVLDLTPPRICQLHKQALKQLNQLMSS,not soluble
16,TKDFEWSSTINAAYQKDEIVELANGKQDDISNAWFIGESINVFYGTASDGLWQESDAAEMAKFNANGHKFEAGMVKPVDQDGNYIIDSNDRIILGNKNPKWVLGWSNTFNYKGLELGIELNGRFGYMVDTGGEGQYGMYNQREISYWTPDNTGADYQKPIYSTAGGDAYSSLLGFKDASFIKIRNISLGYNFNSKALKNIGISSLKLYAQAKNIGNLYSSVDFMDLDLGTTYYNRGFTFGLQVGF,not soluble
17,MWQNFYLTTLKLSQYTQEEKPILPADNMDPRALASVHAWEHGDFMCKGYIQSRLSDPLYNVYSNVETSNELWDSLDKKYQTKDAGSQKYAAAKFLDYKMVDSRPMMVQVEELTCLFHDI,soluble
18,SAETEALSKLREDFRMQNKSVFILGASGETGRVLLKEILEQGLFSKVTLIGRRKLTFDEEAYKNVNQEVVDFEKLDDYASAFQGHDVGFCCLGTTRGKAGAEGFVRVDRDYVLKSAELAKAGGCKHFNLLSSKGADKSSNFLYLQVKGEVEAKVEELKFDRYSVFRPGVLLCDRQESRPGEWLVRKFFGSLPDSWARGHSVPVVTVVRAMLNNVVRPRDKQMELLENKAIHDLGKAHGSLKP,soluble
19,MSSPTATKYDVFLSFRGLDTRRNFISFLYKELVRRKIRTFKDDKELENGRRISPELKRAIEESKFAVVVVSVNYAASPWCLDELVKIMDFENKGSITVMPIFYGVDPCHLRRQIGDVAEQFKKHEAREEDHEKVASWRRALTSLASISGECSLKWEDEANLVDEIADKISKNLMTVTTISNGRDLVGIDTHMKALNKKLDLNSNKSLRVVGIWARGYNGRSALAKYVYQDICHWLKVGWLKVYQDIKTASKLYVLTRWLKVAHLLHRSHHSFKTE,soluble
20,MGSDKIHHHHHHMARSWLDYKTQAWVQWCPGCGDFGILNSIYRAVSELGIDPENLAVVGGIGCSGRTTYYVKGSNFHALHGRAIPVATGVKLANPHLNVIVAGGDGDLMGIGGGHFVALGRRNLNITVLLFDNAVYGLTKGQAAPTLPAWVKTKALSMPNIHDNINPVLLAFAAGYTFIARGYAYHTQQLKELIKTAVRHRGAALVDILQPCPTYNNIMTNKWYEERIYYVDQEEGYDPIIRTPEEFQKKAPAIAAKLMEFGDRIPLGILYWNQTRESFEERLEKIMPGYMSAPPATRRIELEGKPFLHPFDIFKDRLVTP,not soluble
21,SLRLPTVFRQMRPVSRVLAPHLTRAYAKDVKFGADARALMLQGVDLLADAVAVTMGPKGRTVIIEQSWGSPKVTKDGVTVAKSIDLKDKYKNIGAKLVQDVANNTNEEAGDGTTTATVLARSIAKEGFEKISKGANPVEIRRGVMLAVDAVIAELKKQSKPVTTPEEIAQVATISANGDKEIGNIISDAMKKVGRKGVITVKDGKTLNDELEIIEGMKFDRGYISPYFINTSKGQKCEFQDAYVLLSEKKISSIQSIVPALEIANAHRKPLVIIAEDVDGEALSTLVLNRLKVGLQVVAVKAPGFGDNRKNQLKDMAIATGGAVFGEEGLTLNLEDVQPHDLGKVGEVIVTKDDAMLLKGKGDKAQIEKRIQEIIEQLDVTTSEYEKEKLNERLAKLSDGVAVLKVGGTSDVEVNEKKDRVTDALNATRAAVEEGIVLGGGCALLRCIPALDSLTPANEDQKIGIEIIKRTLKIPAMTIAKNAGVEGSLIVEKIMQSSSEVGYDAMAGDFVNMVEKGIIDPTKVVRTALLDAAGVASLLTTAEVVVTEIPKEEKDPGMGAMGGMGGGMGGGMF,soluble
22,MLLLLTFIESPIAGIPEIRKHNCLVLPHIFVCLVITKSFGRVVTSGAAVTKRAAGYFGYLAHCAADETTWYACEQFVIGHARKAVTHFIYLA,not soluble
23,MNYILKQMLGGRQVIATHTCIGMDTDAFQNGRNLVTDTLEIYTGDLRKTLDTLSSIFHPSSFPLKSLRILDNADFKHPIIQGSLLLVVPNTENMHLISNKRVHARYFYYKDDVDFIINKWLDDGKEAGTHFSIGMFLTEDHVKEKYEEFLSTFEERVSWRTNYPPCFAINIDNFSEIVIGYEEFQQISTPEWRLNFKVQKREEFV,not soluble
